Values joined by “and” are separate entries in the source; they are usually repeats but may differ in a detail not shown here. Identical values can stand only once.
B1: 3-49 (antibody, V domains shown)
VH: EVQLQQSGPELVKPGASVKISCKTSGYTFTEYTMHWVKQSHGKSLEWIGGINPNNGDTNYNQKFMGKATLTVDKSSSTAYMELRSLTSEDSAVYYCVRRLLRRGAMDYWGQGTSVTVSS
VL: DIVLTQSPASLAVSLGQRATISCRASENVEYYGTSLMQWFQQKPGQPPKLLIYAASNVDSGVPARFSGSGSGTDFSLNIHPVEEDDIAMYFCQQSRKVPWTFGGGTKLDIK
B2: 3-68 (Fab, V domains shown)
VH: QVQLQQSGPGLVKPSQTLSLTCAISGDSVSRNTAAWNWIRQSPSRGLEWLGRTYYRSKWYNDYAVSVKSRITIRPDTSKNQISLQLTSVTPEDTAVYYCARGVHNAFDIWGRGTMVTVSS
VL: ETTLTQSPGTLSLSPGERATLSCRASQSVGNRYLAWYQQKPGQAPRLLIYGASSRATGIPDRFSGSGSGTDFTLTISRLEPEDFAVYYCQQYSGSTGYTFGQGTKLEIKR
notes: soluble Fab from phage display library huFabL-4, Flag tag
B3: 3-71 (Fab, V domains shown)
VH: QVQLQESGGGLVKPGRSLRLSCTASGFTFSSYAMSWVRQAPGKGLEWVSVNSGSGGTTYYADSVKGRFTISRDNAKNTLYLQMNSLRAEDTAVYYCARVSRYYDILTGYVYAFDIWGKGTLVTVSS
VL: QSVVTQPPSVSAAPGQKVSISCSGSSSNIGKNYVSWYQQLPGTAPKLLIYDNNKRPSGIPDRFSGSKSGTSATLGITGLQAEDEADYYCQSYDRSLGVVFGGGTKLTVLG
notes: as for B2
B4: 3-102 (antibody)
heavy: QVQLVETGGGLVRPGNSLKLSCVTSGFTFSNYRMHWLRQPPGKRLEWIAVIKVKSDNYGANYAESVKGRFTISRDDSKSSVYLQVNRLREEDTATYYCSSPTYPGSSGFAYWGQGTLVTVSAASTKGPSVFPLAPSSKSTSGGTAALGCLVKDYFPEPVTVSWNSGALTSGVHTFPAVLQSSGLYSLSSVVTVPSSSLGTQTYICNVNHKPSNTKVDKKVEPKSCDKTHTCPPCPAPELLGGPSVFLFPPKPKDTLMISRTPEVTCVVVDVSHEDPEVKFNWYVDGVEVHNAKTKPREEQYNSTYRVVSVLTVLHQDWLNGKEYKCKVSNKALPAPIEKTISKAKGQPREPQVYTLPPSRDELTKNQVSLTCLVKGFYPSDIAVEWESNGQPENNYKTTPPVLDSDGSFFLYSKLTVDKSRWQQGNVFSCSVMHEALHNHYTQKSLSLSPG
light: DIQMTQTTSSLSASLGDRVTISCRASQDISNYLNWYQQKPDGTVKLLIYYTSRLHSGVPSRFSGSGSGTDYSLTISNLEQEDIATYFCQQGNKFPPTFGGGTKLEINRTVAAPSVFIFPPSDEQLKSGTASVVCLLNNFYPREAKVQWKVDNALQSGNSQESVTEQDSKDSTYSLSSTLTLSKADYEKHKVYACEVTHQGLSSPVTKSFNRGEC
B5: 3-105 (antibody)
heavy: QVQLVETGGGLVRPGNSLKLSCVTSGFTFSNYRMHWLRQPPGKRLEWIAVIKVKSDNYGANYAESVKGRFTISRDDSKSSVYLQVNRLREEDTATYYCSSPTYPGSSGFAYWGQGTLVTVSAASTKGPSVFPLAPSSKSTSGGTAALGCLVKDYFPEPVTVSWNSGALTSGVHTFPAVLQSSGLYSLSSVVTVPSSSLGTQTYICNVNHKPSNTKVDKKVEPKSCDKTHTCPPCPAPELLGGPDVFLFPPKPKDTLMISRTPEVTCVVVDVSHEDPEVKFNWYVDGVEVHNAKTKPREEQYNSTYRVVSVLTVLHQDWLNGKEYKCKVSNKALPLPEEKTISKAKGQPREPQVYTLPPSRDELTKNQVSLTCLVKGFYPSDIAVEWESNGQPENNYKTTPPVLDSDGSFFLYSKLTVDKSRWQQGNVFSCSVMHEALHNHYTQKSLSLSPG
light: DIQMTQTTSSLSASLGDRVTISCRASQDISNYLNWYQQKPDGTVKLLIYYTSRLHSGVPSRFSGSGSGTDYSLTISNLEQEDIATYFCQQGNKFPPTFGGGTKLEINRTVAAPSVFIFPPSDEQLKSGTASVVCLLNNFYPREAKVQWKVDNALQSGNSQESVTEQDSKDSTYSLSSTLTLSKADYEKHKVYACEVTHQGLSSPVTKSFNRGEC
B6: 3-90 (antibody)
heavy: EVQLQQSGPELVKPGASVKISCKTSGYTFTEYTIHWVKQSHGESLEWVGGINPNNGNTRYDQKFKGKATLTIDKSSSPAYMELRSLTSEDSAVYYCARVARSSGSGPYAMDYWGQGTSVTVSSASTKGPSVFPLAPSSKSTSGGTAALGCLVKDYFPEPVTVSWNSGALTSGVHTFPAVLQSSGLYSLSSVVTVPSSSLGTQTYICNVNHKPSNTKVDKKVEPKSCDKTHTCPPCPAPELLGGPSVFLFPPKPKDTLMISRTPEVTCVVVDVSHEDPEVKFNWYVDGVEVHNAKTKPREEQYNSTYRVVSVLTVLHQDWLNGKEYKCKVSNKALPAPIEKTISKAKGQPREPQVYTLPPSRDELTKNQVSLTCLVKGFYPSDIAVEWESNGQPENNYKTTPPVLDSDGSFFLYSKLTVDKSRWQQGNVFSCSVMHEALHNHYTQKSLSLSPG
light: DVVMTQTPLSLPVSLGDQASISCRCTQSLLHTNGDTYLHWYLQKPGQSPKLLIYKVSNRFSGVPDRFSGSGSGTDFTLKISRVEAEDLGVYFCSQSTHVPYTFGGGTKLEIKRTVAAPSVFIFPPSDEQLKSGTASVVCLLNNFYPREAKVQWKVDNALQSGNSQESVTEQDSKDSTYSLSSTLTLSKADYEKHKVYACEVTHQGLSSPVTKSFNRGEC
B7: 3-92 (antibody)
heavy: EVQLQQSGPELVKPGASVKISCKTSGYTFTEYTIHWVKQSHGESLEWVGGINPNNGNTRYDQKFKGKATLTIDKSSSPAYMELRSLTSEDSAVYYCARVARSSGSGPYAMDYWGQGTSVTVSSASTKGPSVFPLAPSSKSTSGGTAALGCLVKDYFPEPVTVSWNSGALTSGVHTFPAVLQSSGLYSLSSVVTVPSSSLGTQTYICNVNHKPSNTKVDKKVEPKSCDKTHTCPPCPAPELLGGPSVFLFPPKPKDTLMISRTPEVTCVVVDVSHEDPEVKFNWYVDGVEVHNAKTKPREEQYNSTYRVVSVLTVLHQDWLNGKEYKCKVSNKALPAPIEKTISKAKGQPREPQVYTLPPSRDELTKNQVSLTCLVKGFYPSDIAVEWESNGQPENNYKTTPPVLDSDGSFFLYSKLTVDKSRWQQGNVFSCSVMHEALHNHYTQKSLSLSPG
light: DVVMTQTPLSLPVSLGDQASISCRCTQSLLHTNGDTYLHWYLQKPGQSPKLLIYKVSNRFSGVPDRFSGSGSGTDFTLKISRVEAEDLGVYFCSQSTHVPYTFGGGTKLEIKRTVAAPSVFIFPPSDEQLKSGTASVVCLLNNFYPREAKVQWKVDNALQSGNSQESVTEQDSKDSTYSLSSTLTLSKADYEKHKVYACEVTHQGLSSPVTKSFNRGEC
B8: 3-91 (antibody)
heavy: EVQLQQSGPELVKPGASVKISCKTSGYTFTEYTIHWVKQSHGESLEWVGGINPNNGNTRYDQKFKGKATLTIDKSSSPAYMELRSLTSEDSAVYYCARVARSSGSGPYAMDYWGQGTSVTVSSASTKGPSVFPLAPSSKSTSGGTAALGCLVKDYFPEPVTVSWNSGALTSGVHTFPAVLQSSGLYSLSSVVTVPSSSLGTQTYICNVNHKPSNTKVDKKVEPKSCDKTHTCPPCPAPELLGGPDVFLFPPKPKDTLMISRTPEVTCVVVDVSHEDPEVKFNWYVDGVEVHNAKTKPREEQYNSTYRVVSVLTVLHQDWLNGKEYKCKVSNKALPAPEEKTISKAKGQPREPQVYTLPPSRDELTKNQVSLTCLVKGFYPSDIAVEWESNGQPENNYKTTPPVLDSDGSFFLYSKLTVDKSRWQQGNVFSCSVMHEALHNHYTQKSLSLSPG
light: DVVMTQTPLSLPVSLGDQASISCRCTQSLLHTNGDTYLHWYLQKPGQSPKLLIYKVSNRFSGVPDRFSGSGSGTDFTLKISRVEAEDLGVYFCSQSTHVPYTFGGGTKLEIKRTVAAPSVFIFPPSDEQLKSGTASVVCLLNNFYPREAKVQWKVDNALQSGNSQESVTEQDSKDSTYSLSSTLTLSKADYEKHKVYACEVTHQGLSSPVTKSFNRGEC
B9: 3-67 (Fab, V domains shown)
VH: QVQLQQSGPGLVKPSQTLSLTCAISGDSVSSNSAAWNWIRQSPSRGLEWLGRTYYRSKWYNDYAVSVKSRITINPDTSKNQFSLQLNSVTPEDTAVYYCARAARLGMDVWGKGTMVTVSS
VL: QSVVTQPPSVSAAPGQKVTISCSGTSFNIGNNYVSWYQQLPGTAPKLLIYDNIRRPSGIPERFSGSKSGTSATLGITGLQTGDEADYYCGTWDSSLRAYVFGTGTKLTVLG
notes: as for B2
B10: 3-69 (Fab, V domains shown)
VH: QVQLQQSGPGLVKPSQTLSLTCAISGDSVSSNSAAWNWIRQSPSRGLEWLGRTYYRSKWYNDYAVSVKSQITINPDTSKNQFSLQLNSVTPEDTAVYYCAREQFSGMDVWGRGTLVTVSS
VL: QSVLTQPPSASGTPGQRVTISCSGSSSNIGRNYVYWYQQLPGTAPKLLTDSNNQRPSGVPDRFSASKSGTSASLAISGLRSEDEADYYCAAWDGSLRGRVFGGGTKMTVLG
notes: as for B2
B11: 3-72 (Fab, V domains shown)
VH: QVTLKESGGGVVQPGRSLRLSCAASGFTFSSYAMHWVRQAPGKGLEWVAVISYDGSNKYYADSVKGRFTISRDNSKNTLYLQMNSLRAEDTAVYYCASSLLGAFDVWGKGTLVTVSS
VL: DVVMTQSPLSLPVTPGEPASISCRSSQSLLHSNGYNYLSWYLQRPGQSPQLLMYLGSKRASGVPDRFSGSGSGTDFTLEISRVEAEDVGIYYCMQALQTPLTFGGGTKVEIKR
notes: as for B2

Assays:
[1] = target: T1, human CCR8 (human, UniProt P51685 1-355); experiment: cell-based or functional assay
[2] = target: T1, human CCR8; experiment: cell-based or functional assay; remark: listed apart in the source
[3] = target: T1, human CCR8; experiment: flow cytometry, hCCR8 transfected CHOK1 cells
Experimental: Briefly, 1·10⁵ cells per well in a 96 well plate were incubated with a dilution of unconjugated anti-CCR8 mAb at 10 μg/mL then diluted at 1/3.33, 4 dilution points (during 30 min at 4° C.). […] To determine EC50 value, 8 concentrations of anti-CCR8 mAb were tested. Unbound antibodies were washed away with PBS (Invitrogen by Thermofisher Scientific, Illkirch-Graffenstaden, France) supplemented by 2% Fetal Bovine Serum (Invitrogen by Thermofisher Scientific, Illkirch-Graffenstaden, France) and 2 mM EDTA (Invitrogen by Thermofisher Scientific, Illkirch-Graffenstaden, France). Subsequently, cells are centrifuged (5 min at 400 g) and bound antibody is detected with F(ab′)₂-Goat anti-Mouse IgG (H+L) Cross-Adsorbed Secondary Antibody, Alexa Fluor 488 (dilution 1/500) (Invitrogen by Thermofisher Scientific, Illkirch-Graffenstaden, France) or with F(ab′)₂-Goat anti-Human IgG Fc Secondary Antibody, PE (Invitrogen by Thermofisher Scientific, Illkirch-Graffenstaden, France) (dilution 1/1000) at 4° C. for 30 min. Detection reagent is washed away and cells are centrifuged (5 min at 400 g) and resuspended in 30 μL PBS. Bound detection antibody is quantified on a MacsQuant16 (Miltenyi, Gladbach, Germany) (B1 or B2 channel, 5000 events per acquisition).

[4] = target: pm8 (human, sulfated tyrosines at Y15, Y16 and Y17); experiment: ELISA on coated peptide [cont.]
Experimental: (§1) The specific binding properties of antibodies were evaluated by ELISA with coated CCR8 related peptides (500 ng/mL) in carbonate/bicarbonate buffer. Different peptides were used as described in Table 1 (see Example 1). Each anti-CCR8 mAb was tested at 1 μg/mL then diluted at 1/10. After an incubation at room temperature during 90 min, unbound mAbs were removed by washings. […] After washings, 3,3′,5,5′-tetramethylbenzidine (TMB) (Interchim, Montlugon, France) was added for 15 min. Then the optical density (OD) was determined by using a multiplate reader (Tecan, Lyon, France) and correlated with mAb reactivity on the panel of coated peptides.

[5] = target: pm3 (human, sulfated tyrosine at Y17); experiment: ELISA on coated peptide [cont.]
Experimental: as §1

[6] = target: pm6 (human, sulfated tyrosines at Y16 and Y17); experiment: ELISA on coated peptide [cont.]
Experimental: as §1

[7] = target: pm5 (human, sulfated tyrosines at Y15 and Y17); experiment: ELISA on coated peptide [cont.]
Experimental: as §1

[8] = target: T2, biotinylated CCR8 peptide (human, N-terminal biotin); experiment: ELISA, soluble Fab on biotinylated CCR8 peptide captured on streptavidin
T2 construct: first 34 residues of human CCR8 plus a C-terminal K; also called biotinylated target peptide
Experimental: (§2) The wells of a microtiter plate were coated with 200 ng streptavidin protein in 100 μL Coating Buffer (0.1 M NaHCO₃, pH 8.6), and then incubated overnight at 4° C. For negative control, the wells were coated with PBS to determine non-specific binding. After shaking out the coating solution, the wells were washed three times with washing buffer (0.1% Tween 20-PBS). To prevent non-specific binding, 200 μL Blocking Buffer (3% BSA-PBS) was adding and incubated for 2 h at 37° C. After shaking out the blocking buffer, the wells were incubated with 50 ng biotinylated target peptide (SEQ ID NO: 420; see Example 10) in 100 μL Blocking Buffer for 1 h at 37° C. The control well was incubated with only 100 μL Blocking Buffer for 1 h at 37° C. After shaking out the biotinylated target peptide or buffer solution, the wells were washed 3 times with the washing buffer (0.1% Tween 20-PBS). Then 100 μL supernatant containing soluble Fab were added and incubated for 2 h at 37° C. Following three washes with washing buffer (0.1% Tween 20-PBS) for 3 times, 100 μL/well HRP conjugate of mouse anti-Flag tag mAb (Sigma A8592, 1:5000) diluted in Blocking Buffer were added and incubated for 1 h at 37° C. After washings, 3,3′,5,5′-tetramethylbenzidine (TMB) (Sigma) were added for 5 to 30 min at room temperature. The reaction was stopped by adding 50 μL/well of 1 M H₂SO₄.

[9] = target: T3, streptavidin (UniProt P22629 37-163, limits assumed); experiment: ELISA, soluble Fab on streptavidin-coated control well without peptide
T3 construct: control well without peptide
Experimental: as §2

[10] = target: T1, human CCR8; experiment: cell-based or functional assay; remark: listed apart in the source

T3 sequence (P22629 37-163 limits assumed): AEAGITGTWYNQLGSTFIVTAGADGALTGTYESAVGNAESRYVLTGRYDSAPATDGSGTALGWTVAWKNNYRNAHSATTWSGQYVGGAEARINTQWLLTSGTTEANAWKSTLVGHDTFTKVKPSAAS
pm3 (human, sulfated tyrosine at Y17), sequence (peptide, as listed by the source): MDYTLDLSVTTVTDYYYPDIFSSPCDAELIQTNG
pm6 (human, sulfated tyrosines at Y16 and Y17), sequence (peptide, as listed by the source): as above
pm5 (human, sulfated tyrosines at Y15 and Y17), sequence (peptide, as listed by the source): as above
pm8 (human, sulfated tyrosines at Y15, Y16 and Y17), sequence (peptide, as listed by the source): as above

Binder | Optical Density [8] | Optical Density [9] | ADCC % Max lysis, NK cells Donor 3 [10] | ADCC % Max lysis, NK cells Donor 4 [10] | ADCC EC50, NK cells Donor 3 [10] | ADCC EC50, NK cells Donor 4 [10] | further results
B1 | – | – | – | – | – | – | IC50 (Gi2 BRET, pH 6.5) [1]: 0.036 µg/ml and 0.237 nM; IC50 (Gi2 BRET, pH 7.4) [1]: 0.006 µg/ml and 0.039 nM; hCCL1 (100 nM) residual response, Protocol #2, mAb 0.08 µg/mL [2]: 99%; hCCL1 (100 nM) residual response, Protocol #2, mAb 0.4 µg/mL [2]: 102%; hCCL1 (100 nM) residual response, Protocol #2, mAb 10 µg/mL [2]: 95%; hCCL1 (100 nM) residual response, Protocol #3, mAb 0.05 µg/mL [2]: 102%; hCCL1 (100 nM) residual response, Protocol #3, mAb 0.5 µg/mL [2]: 97%; hCCL1 (100 nM) residual response, Protocol #3, mAb 5 µg/mL [2]: 67%; % positive cells [3]: 73.4%; MFI fold change to isotype ctrl [3]: 6.52 fold; binding result [4]: binds; binding result [5]: binds; binding result [6]: binds; binding result [7]: binds
B2 | 3.64 OD450 | 0.06 OD450 | – | – | – | – | –
B3 | 2.4 OD450 | 0.08 OD450 | – | – | – | – | –
B4 | – | – | 16% | 18% | 0.291 nM | 0.406 nM | –
B5 | – | – | 25% | 30% | 0.00822 nM | 0.0489 nM | –
B6 | – | – | 14% | 15% | 0.793 nM | 1.52 nM | –
B7 | – | – | 29% | 29% | 0.195 nM | 0.282 nM | –
B8 | – | – | 25% | 28% | 0.218 nM | 0.053 nM | –
B9 | 2.23 OD450 | 0.06 OD450 | – | – | – | – | –
B10 | 2.67 OD450 | 0.07 OD450 | – | – | – | – | –
B11 | 3.26 OD450 | 0.09 OD450 | – | – | – | – | –
